Experimental data: publication doi:10.1101/123679 (bioRxiv, 2017)

Experiments:
Experiment in all cases: FRET or BRET
[1] = target: T1, RTN2 fused to mRFP (Arabidopsis reticulon 2) (Arabidopsis thaliana, UniProt Q9SUT9 1-271)
T1 sequence (looked up): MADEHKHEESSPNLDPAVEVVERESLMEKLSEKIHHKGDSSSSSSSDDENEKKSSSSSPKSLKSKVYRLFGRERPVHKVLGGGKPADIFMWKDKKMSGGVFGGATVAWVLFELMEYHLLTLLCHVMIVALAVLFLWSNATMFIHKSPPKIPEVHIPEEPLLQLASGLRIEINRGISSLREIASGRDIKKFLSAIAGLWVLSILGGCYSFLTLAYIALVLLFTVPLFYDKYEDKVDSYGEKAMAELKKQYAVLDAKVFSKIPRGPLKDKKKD

[2] = target: T2, RTN3 fused to mRFP (Arabidopsis reticulon 3) (Arabidopsis thaliana, UniProt Q9SH59 1-255)
T2 sequence (looked up): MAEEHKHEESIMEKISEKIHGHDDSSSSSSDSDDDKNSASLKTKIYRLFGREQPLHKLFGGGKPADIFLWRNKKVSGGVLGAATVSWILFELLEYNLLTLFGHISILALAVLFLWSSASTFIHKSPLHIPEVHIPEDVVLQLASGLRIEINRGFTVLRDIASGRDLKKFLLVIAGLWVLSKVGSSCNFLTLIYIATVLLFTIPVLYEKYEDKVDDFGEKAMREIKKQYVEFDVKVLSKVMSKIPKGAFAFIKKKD

[3] = target: T3, RTN19 fused to mRFP (Arabidopsis reticulon 19, 3BETAHSD/D2) (Arabidopsis thaliana, UniProt Q67ZE1 1-564)
T3 sequence (looked up): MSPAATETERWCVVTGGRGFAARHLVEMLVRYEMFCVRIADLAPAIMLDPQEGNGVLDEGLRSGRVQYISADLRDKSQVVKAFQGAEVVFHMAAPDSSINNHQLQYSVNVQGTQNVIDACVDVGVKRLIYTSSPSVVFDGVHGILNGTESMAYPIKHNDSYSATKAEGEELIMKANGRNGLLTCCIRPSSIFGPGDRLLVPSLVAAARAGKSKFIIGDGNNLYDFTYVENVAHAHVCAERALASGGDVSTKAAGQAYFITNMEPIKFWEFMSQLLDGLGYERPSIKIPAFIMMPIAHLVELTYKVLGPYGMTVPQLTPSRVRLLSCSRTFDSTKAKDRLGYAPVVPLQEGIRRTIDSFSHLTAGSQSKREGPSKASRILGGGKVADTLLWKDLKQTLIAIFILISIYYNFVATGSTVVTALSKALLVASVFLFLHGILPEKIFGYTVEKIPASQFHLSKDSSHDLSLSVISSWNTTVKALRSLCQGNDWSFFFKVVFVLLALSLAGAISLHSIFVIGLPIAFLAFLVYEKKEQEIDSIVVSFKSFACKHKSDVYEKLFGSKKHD

[4] = target: T4, mRFP-RTN1 (Arabidopsis reticulon 1) (Arabidopsis thaliana, UniProt Q9SUR3 1-275)
T4 sequence (looked up): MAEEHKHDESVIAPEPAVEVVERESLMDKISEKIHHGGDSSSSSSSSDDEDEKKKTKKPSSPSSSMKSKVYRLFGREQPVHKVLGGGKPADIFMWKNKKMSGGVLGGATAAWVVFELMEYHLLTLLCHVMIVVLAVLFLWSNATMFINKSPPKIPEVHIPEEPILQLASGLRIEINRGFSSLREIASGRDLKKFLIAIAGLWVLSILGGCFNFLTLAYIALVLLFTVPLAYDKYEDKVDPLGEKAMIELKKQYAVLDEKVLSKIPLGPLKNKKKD

fluorescence lifetime of the GFP donor (FRET-FLIM) [1]: 2.2 ns | fluorescence lifetime of the GFP donor (FRET-FLIM) [2]: 2.2 ns | fluorescence lifetime of the GFP donor (FRET-FLIM) [3]: 2.2 ns | fluorescence lifetime of the GFP donor (FRET-FLIM) [4]: 2.21 ns
B1: GFP-RTN20 (Arabidopsis reticulon 20) (natural protein, Arabidopsis thaliana, UniProt A9X4U2 1-561, looked up)
chain: MDEDSVHGDSHLKTCVVLGGRGFIGRSLVSRLLRLGNWTVRVADSGHTLHLDESDSLLEDALSSGRASYHCVDVRDKPQIVKVTEGSYVVFYMGATDLRSHDYFDCYKVIVQGTRNVISACRESGVRKLIYNSTADVVFDGSQPIRDGDESLRRPLKFQSMLTDFKAQAEALIKLANNRDGLLTCALRSSIVFGPGDTEFVPFLVNLAKSGYAKFILGSGENISDFTYSENVSHAHICAVKALDSQMEFVAGKEFFITNLKPVRFWDFVSHIVEGLGYPRPSIKLPVRLVLYVFSLLKWTHEKEGLGSNYDTAHQYALLASSTRTFNCNAAKKHLGYTPVVTLEDGIASTLQWFSRDLEKSDDTIIQSTADQLLGCGKVADILLWRNEKKTFVSFLVLNLFYYWFFFSGNTFTSSAAQLLFIFAVALYGVSFVPSKIFGFQVNKIPPWRFEISESAVRDLSSDIVVVWNQGVRSFKSLSSGGDWIKFFKIAGSLYLLKLIVSRSLAAFLFTVMSFSFTGFFIYEQYELELYHLARIFVECLTFIKRMVIPVSDASSKPMFM
